{"source": "patent US20110098212A1", "key": {"[1]": {"target": "chemokine receptor CCR4 (human) (UniProt P51679)", "sequence (P51679 whole entry)": "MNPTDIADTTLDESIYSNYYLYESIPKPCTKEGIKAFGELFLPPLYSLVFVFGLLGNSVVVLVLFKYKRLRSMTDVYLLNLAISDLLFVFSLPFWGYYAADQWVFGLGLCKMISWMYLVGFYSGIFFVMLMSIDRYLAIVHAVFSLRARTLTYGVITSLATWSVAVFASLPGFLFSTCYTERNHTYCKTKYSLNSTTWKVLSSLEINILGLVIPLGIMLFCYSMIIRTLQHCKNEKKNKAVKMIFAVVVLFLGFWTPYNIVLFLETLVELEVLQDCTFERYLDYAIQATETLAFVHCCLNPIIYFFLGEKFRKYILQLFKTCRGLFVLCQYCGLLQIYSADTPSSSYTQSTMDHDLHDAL", "test": "cell-based or functional assay"}, "[2]": {"target": "chemokine receptor CCR8 (human) (UniProt P51685)", "sequence (P51685 whole entry)": "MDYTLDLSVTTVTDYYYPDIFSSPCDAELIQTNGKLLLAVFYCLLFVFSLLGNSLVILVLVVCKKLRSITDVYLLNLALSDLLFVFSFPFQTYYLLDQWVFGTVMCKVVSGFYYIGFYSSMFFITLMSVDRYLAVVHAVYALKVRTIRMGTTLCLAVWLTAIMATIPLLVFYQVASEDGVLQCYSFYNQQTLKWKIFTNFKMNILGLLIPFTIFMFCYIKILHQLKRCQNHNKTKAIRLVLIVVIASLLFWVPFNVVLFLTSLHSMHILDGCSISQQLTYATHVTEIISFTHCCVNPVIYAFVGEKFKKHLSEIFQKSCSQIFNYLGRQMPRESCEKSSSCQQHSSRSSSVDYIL", "test": "cell-based or functional assay"}, "[3]": {"target": "human chemokine receptor CCR5 (human), P51681", "sequence (P51681 whole entry)": "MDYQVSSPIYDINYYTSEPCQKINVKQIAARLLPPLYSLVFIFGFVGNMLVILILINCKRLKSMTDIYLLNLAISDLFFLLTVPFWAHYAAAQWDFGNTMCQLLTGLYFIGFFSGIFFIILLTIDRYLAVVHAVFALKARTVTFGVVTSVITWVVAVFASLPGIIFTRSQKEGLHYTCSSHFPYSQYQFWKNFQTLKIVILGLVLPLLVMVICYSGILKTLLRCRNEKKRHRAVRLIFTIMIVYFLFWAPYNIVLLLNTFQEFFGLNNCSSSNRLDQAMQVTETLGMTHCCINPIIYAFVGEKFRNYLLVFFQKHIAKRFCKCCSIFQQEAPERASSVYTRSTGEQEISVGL", "test": "cell-based or functional assay"}, "[4]": {"target": "T1, chemokine receptor CCR1 (human), P32246", "T1 chain": "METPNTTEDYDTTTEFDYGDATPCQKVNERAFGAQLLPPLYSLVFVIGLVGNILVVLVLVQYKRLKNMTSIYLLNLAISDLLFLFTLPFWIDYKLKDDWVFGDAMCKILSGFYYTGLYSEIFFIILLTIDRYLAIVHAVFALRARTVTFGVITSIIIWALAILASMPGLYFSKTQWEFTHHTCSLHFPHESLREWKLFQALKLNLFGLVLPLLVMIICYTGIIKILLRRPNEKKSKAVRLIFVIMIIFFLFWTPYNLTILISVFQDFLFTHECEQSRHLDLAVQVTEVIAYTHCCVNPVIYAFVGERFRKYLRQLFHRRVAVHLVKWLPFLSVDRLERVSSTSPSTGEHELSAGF", "test": "cell-based or functional assay"}, "[5]": {"target": "human chemokine receptor CCR5 (human), P51681"}, "[6]": {"target": "human chemokine receptor CCR5 (human), P51681", "test": "competition binding against 166 pM 125I-CCL3 on human PBMCs"}}, "note": "Where two headings read alike, the source gives them in different places."}
{"binder": "CCL22 (ligand, human, UniProt O00626 25-93, looked up) GPYGANMEDSVCCRDYVRYRLPLRVVKHFYWTSDSCPRPGVVLLTFRDKEICADPRVPWVKMILNKLSQ", "values": [{"measurement": "chemotaxis of HUT78 cells, concentration of maximal efficacy", "setting": "[1]", "result": 10, "unit": "nM"}]}
{"binder": "CCL1/I309 (ligand, human, UniProt P22362 24-96, looked up) KSMQVPFSRCCFSFAEQEIPLRAILCYRNTSSICSNEGLIFKLKRGKEACALDTVGWVQRHRKMLRHCPSKRK", "values": [{"measurement": "EC50, calcium mobilisation in CCR8-CHO cells", "setting": "[2]", "result": 3.87, "unit": "nM"}, {"measurement": "chemotaxis of HUT78 cells, concentration of maximal efficacy", "setting": "[2]", "result": 1, "unit": "nM"}]}
{"binder": "FICSSPDAELFSEKSRMSSSVLLGCLLCCMDWSAAVPV (modifications not checked)", "note": "[U83A-Npep, N-terminal spliced truncated form of U83A]", "values": [{"measurement": "inhibition of HIV-1 YU2 infection at 50 nM", "setting": "[3]", "result": "< 50", "unit": "%"}, {"measurement": "reduction of HIV-1 JRCSF infectivity on CEM-NKR-CCR5-luc cells at 5 uM", "setting": "[3]", "result": 90, "unit": "%"}, {"measurement": "blocking of CCL3 induced calcium flux in CCR1-CHO cells by 100 nM pre-treatment", "setting": "[4]", "result": 50, "unit": "%"}, {"measurement": "blocking of the calcium response to 10 nM U83A in CCR1-CHO cells by 100 nM pre-treatment", "setting": "[4]", "result": 50, "unit": "%"}, {"measurement": "IC50", "setting": "[5]", "result": 8.3, "unit": "nM"}, {"measurement": "IC50", "setting": "[6]", "result": 92, "unit": "nM"}]}
